Consider two substances from patent publication US20020090651A1.

The assay deals with Xenopus FGF receptor-1 (Xenopus laevis) (UniProt P22182). The assay is described as follows: cell-based or functional assay.
Sequence of UniProt P22182 (P22182 21-812): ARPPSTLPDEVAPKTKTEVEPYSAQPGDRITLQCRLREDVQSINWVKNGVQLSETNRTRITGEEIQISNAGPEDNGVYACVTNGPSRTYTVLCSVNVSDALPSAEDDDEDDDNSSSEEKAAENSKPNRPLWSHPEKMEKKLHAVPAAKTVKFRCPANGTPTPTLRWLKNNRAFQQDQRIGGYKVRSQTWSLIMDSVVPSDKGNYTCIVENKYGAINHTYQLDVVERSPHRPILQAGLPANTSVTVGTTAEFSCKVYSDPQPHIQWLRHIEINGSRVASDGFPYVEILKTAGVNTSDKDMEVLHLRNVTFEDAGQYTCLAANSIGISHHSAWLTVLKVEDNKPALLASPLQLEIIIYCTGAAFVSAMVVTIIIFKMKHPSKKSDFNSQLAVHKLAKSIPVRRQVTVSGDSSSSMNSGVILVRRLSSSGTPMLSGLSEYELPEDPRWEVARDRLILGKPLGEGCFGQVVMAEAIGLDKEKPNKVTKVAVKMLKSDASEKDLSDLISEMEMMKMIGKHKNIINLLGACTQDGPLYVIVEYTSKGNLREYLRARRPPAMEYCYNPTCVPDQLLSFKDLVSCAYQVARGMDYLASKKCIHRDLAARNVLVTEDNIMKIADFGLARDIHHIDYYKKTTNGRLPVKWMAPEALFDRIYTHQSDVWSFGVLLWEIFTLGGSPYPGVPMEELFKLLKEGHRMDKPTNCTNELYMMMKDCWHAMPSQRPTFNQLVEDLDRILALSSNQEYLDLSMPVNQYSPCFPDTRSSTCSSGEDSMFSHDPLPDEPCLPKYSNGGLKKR

The substance FRL-2 protein (ligand) came in with a Ca2+ release (efflux) of Xenopus oocytes co-injected with ligand and FGF receptor mRNAs of 2 fold.
“Xenopus bFGF (basic fibroblast growth factor), without a signal sequence (from UniProt P12226 1-155) (ligand)” yielded a Ca2+ release (efflux) of Xenopus oocytes co-injected with ligand and FGF receptor mRNAs of 3 fold.
